Experimental data as given in patent US20200377595A1 (Chugai, published 2020).
Where a chain is given by its changes, count along the chain named. Where “and” joins values, the source holds several entries; their conditions need not be identical. Identical values can stand only once.

T1: biotin-labeled cynomolgus monkey CD137 fused to human IgG1 Fc fragment (cynomolgus monkey; human, UniProt Q07011 24-186, limits assumed, biotin-labeled)
T1 construct: also called cyno CD137-Fc; not shown: human IgG1 Fc fragment
T1 chain: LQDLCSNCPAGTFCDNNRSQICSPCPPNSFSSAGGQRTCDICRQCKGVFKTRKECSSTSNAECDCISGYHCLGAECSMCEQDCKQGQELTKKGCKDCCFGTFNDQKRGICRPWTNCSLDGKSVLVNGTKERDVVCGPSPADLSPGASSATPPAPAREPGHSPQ

B1: dBBDu197 (antibody, IgG1, V domains shown)
VH: QVQLVESGGGLVQPGRSLRLSCAASGFTFSNAWMHWVRQAPGKGLEWVAQIKDRSNAYAAYYAPSVKGRFTISRDDSKNSIYLQMNSLKTEDTAVYYCHYVHYASASTVLPAFGVDAWGQGTTVTVSS
VL: DIVMTQSPLSLPVTPGEPASISCRSSQSLVHSNRNTYLHWYQQKPGQAPRLLIYKVSNRFSGVPDRFSGSGSGTDFTLKISRVEAEDVGVYYCGQGTQVPYTFGQGTKLEIK
notes: IgG1
B2: dBBDu204 (antibody, IgG1, V domains shown)
VH: B1 VH with A57N, A60T, P64E
VL: B1 VL
notes: IgG1
B3: dBBDu199 (antibody, IgG1, V domains shown)
VH: B1 VH with R54K, S55Q, N56S, A57G, A59N, A60T
VL: B1 VL
notes: IgG1
B4: dBBDu202 (antibody, IgG1, V domains shown)
VH: B1 VH with R54K, S55G, A104S, S105A
VL: B1 VL
notes: IgG1
B5: dBBDu196 (antibody, IgG1, V domains shown)
VH: B1 VH with S55G, A59N, P64E
VL: B1 VL
notes: IgG1
B6: dBBDu167 (antibody, IgG1, V domains shown)
VH: B1 VH with R54K, S55G, A57L, S107G, T108G, V109G, A112G
VL: B1 VL
notes: IgG1
B7: dBBDu193 (antibody, IgG1, V domains shown)
VH: B1 VH with A57Q, A60T, A104S, S105A, V109L, A112S
VL: B1 VL
notes: IgG1
B8: dBBDu173 (antibody, IgG1, V domains shown)
VH: B1 VH with R54K, S55G, A57L, S107G, T108G, V109G, P111S, F113Y
VL: B1 VL
notes: IgG1
B9: dBBDu189 (antibody, IgG1, V domains shown)
VH: B1 VH with V48I, A57Q, A60T, S105Q, T108S, V109L, A112S
VL: B1 VL
notes: IgG1
B10: dBBDu186 (antibody, IgG1, V domains shown)
VH: B1 VH with A57Q, A60T, S105Q
VL: B1 VL
notes: IgG1
B11: dBBDu205 (antibody, IgG1, V domains shown)
VH: B1 VH with N56Q, A57L
VL: B1 VL
notes: IgG1
B12: CE115HA340 one-arm antibody (antibody, human IgG1, kappa, L234A L235A, N297A)
VH: QVQLVESGGGLVQPGRSLRLSCAASGFTFSNAWMHWVRQAPGKGLEWVAQIKDKSNNYATYYAESVKGRFTISRDDSKNSIYLQMNSLKTEDTAVYYCRYVHYAAYYGVDAWGQGTTVTVSSASTKGPSVFPLAPSSKSTSGGTAALGCLVKDYFPEPVTVSWNSGALTSGVHTFPAVLQSSGLYSLSSVVTVPSSSLGTQTYICNVNHKPSNTKVDKKVEPKSCDKTHTCPPCPAPEAAGGPSVFLFPPKPKDTLMISRTPEVTCVVVDVSHEDPEVKFNWYVDGVEVHNAKTKPREEQYASTYRVVSVLTVLHQDWLNGKEYKCKVSNKALPAPIEKTISKAKGQPREPQVYTLPPSRCELTKNQVSLSCAVKGFYPSDIAVEWESNGQPENNYKTTPPVLDSDGSFFLVSKLTVDKSRWQQGNVFSCSVMHEALHNHYTQKSLSLSPDYKDDDDK
chain: EPKSSDKTHTCPPCPAPELLGGPSVFLFPPKPKDTLMISRTPEVTCVVVDVSHEDPEVKFNWYVDGVEVHNAKTKPREEQYNSTYRVVSVLTVLHQDWLNGKEYKCKVSNKALPAPIEKTISKAKGQPREPQVCTLPPSRDELTKNQVSLWCLVKGFYPSDIAVEWESNGQPENNYKTTPPVLDSDGSFFLYSKLTVDKSRWQQGNVFSCSVMHEALHNRYTQKSLSLSP
light: DIVMTQSPLSLPVTPGEPASISCRSSQSLVHSNRNTYLHWYQQKPGQAPRLLIYKVSNRFSGVPDRFSGSGSGTDFTLKISRVEAEDVGVYYCGQGTQVPYTFGQGTKLEIKRTVAAPSVFIFPPSDEQLKSGTASVVCLLNNFYPREAKVQWKVDNALQSGNSQESVTEQDSKDSTYSLSSTLTLSKADYEKHKVYACEVTHQGLSSPVTKSFNRGEC
notes: one-arm antibody
B13: NNS6f64 (antibody)
chain 1: QVQLVESGGGLVQPGRSLRLSCAASGFTFSNAWMHWVRQAPGKGLEWVAQIKDKSNNYATYYAESVKGRFTISRDDSKNSIYLQMNSLKTEDTAVYYCRYVHYAALVSLTVYYGVDAWGQGTTVTVSSASTKGPSVFPLAPSSKSTSGGTAALGCLVKDYFPEPVTVSWNSGALTSGVHTFPAVLQSSGLYSLSSVVTVPSSSLGTQTYICNVNHKPSNTKVDKKVEPKSCDKTHTCPPCPAPEAAGGPSVFLFPPKPKDTLMISRTPEVTCVVVDVSHEDPEVKFNWYVDGVEVHNAKTKPREEQYASTYRVVSVLTVLHQDWLNGKEYKCKVSNKALPAPIEKTISKAKGQPREPQVYTLPPSRCELTKNQVSLSCAVKGFYPSDIAVEWESNGQPENNYKTTPPVLDSDGSFFLVSKLTVDKSRWQQGNVFSCSVMHEALHNHYTQKSLSLSPDYKDDDDK
chain 2: B12 chain
chain 3: B12 light
B14: NNS6f47 (antibody)
chain 1: B13 chain 1 with L106H, V107F, S108M, L109W, T110W, V111G
chain 2: B12 chain
chain 3: B12 light
B15: NNS6f59 (antibody)
chain 1: B13 chain 1 with V107L, S108V, L109Q, T110E, V111G
chain 2: B12 chain
chain 3: B12 light
B16: NNS6f58 (antibody)
chain 1: B13 chain 1 with L106S, V107W, S108Q, L109V, T110S, V111R
chain 2: B12 chain
chain 3: B12 light
B17: NHS6f50 (antibody)
chain 1: B13 chain 1 with V107T, S108G, L109G, T110L, V111G
chain 2: B12 chain
chain 3: B12 light
B18: NNS6f67 (antibody)
chain 1: B13 chain 1 with L106G, V107L, S108L, L109R, T110A, V111A
chain 2: B12 chain
chain 3: B12 light
B19: NHS6f52 (antibody)
chain 1: B13 chain 1 with L106Y, V107M, S108L, L109G, T110L, V111G
chain 2: B12 chain
chain 3: B12 light
B20: NNS6f71 (antibody)
chain 1: B13 chain 1 with L106G, V107W, S108V, T110G, V111S
chain 2: B12 chain
chain 3: B12 light
B21: NNS6f27 (antibody)
chain 1: B13 chain 1 with L106V, V107W, S108G, L109S, T110V, V111W
chain 2: B12 chain
chain 3: B12 light
B22: NNS6f68 (antibody)
chain 1: B13 chain 1 with L106V, V107E, S108W, L109G, T110R, V111W
chain 2: B12 chain
chain 3: B12 light
B23: NNS6f56 (antibody)
chain 1: B13 chain 1 with L106R, V107E, S108A, L109T, T110R, V111W
chain 2: B12 chain
chain 3: B12 light
B24: NNS6f54 (antibody)
chain 1: B13 chain 1 with L106F, V107E, S108W, L109V, T110G, V111W
chain 2: B12 chain
chain 3: B12 light
B25: NNS6f51 (antibody)
chain 1: B13 chain 1 with L106G, V107F, S108L, L109V, T110L, V111W
chain 2: B12 chain
chain 3: B12 light
B26: NHS6f29 (antibody)
chain 1: B13 chain 1 with L106I, V107Y, S108Y, L109P, V111N
chain 2: B12 chain
chain 3: B12 light
B27: NNS6f55 (antibody)
chain 1: B13 chain 1 with L106A, V107G, S108R, L109W, T110L, V111A
chain 2: B12 chain
chain 3: B12 light
B28: NNS6f73 (antibody)
chain 1: B13 chain 1 with L106W, S108V, L109G, T110V, V111R
chain 2: B12 chain
chain 3: B12 light
B29: NNS6f62 (antibody)
chain 1: B13 chain 1 with L106N, V107G, S108G, L109T, T110R, V111H
chain 2: B12 chain
chain 3: B12 light
B30: NHS6f17 (antibody)
chain 1: B13 chain 1 with L106W, V107G, S108E, L109G, T110V
chain 2: B12 chain
chain 3: B12 light
B31: NNS6f63 (antibody)
chain 1: B13 chain 1 with L106G, V107G, S108G, L109G, T110W
chain 2: B12 chain
chain 3: B12 light
B32: NNS6f72 (antibody)
chain 1: B13 chain 1 with L106E, V107G, S108I, L109W, T110W, V111G
chain 2: B12 chain
chain 3: B12 light

Molecular target: T1, biotin-labeled cynomolgus monkey CD137 …
Test: ELISA, IgG

Row | binding result | Binder
1 | binds | B1
2 | binds | B2
3 | binds | B3
4 | binds | B4
5 | binds | B5
6 | binds | B6
7 | binds | B7
8 | binds | B8
9 | binds | B9
10 | binds | B10
11 | binds | B11

Molecular target: biotinylated CD3 epsilon epitope peptide
Test: SPR, one-arm Ab

Row | Kd | Binder
12 | 20 nM and 27 nM | B12
13 | 78 nM | B13
14 | 31 nM | B14
15 | 200 nM | B15
16 | 44 nM | B16
17 | 71 nM | B17
18 | 36 nM | B18
19 | 52 nM | B19
20 | 51 nM | B20
21 | 38 nM | B21
22 | 45 nM | B22
23 | 21 nM | B23
24 | 29 nM | B24
25 | 31 nM | B25
26 | 90 nM | B26
27 | 31 nM | B27
28 | 26 nM | B28
29 | 61 nM | B29
30 | 74 nM | B30
31 | 69 nM | B31
32 | 150 nM | B32
